Test results published in the RNAGym collection of RNA variant scans (doi:10.7554/elife.90254).

B1: OR4K15 (parent)
chain: GUUAACGGUCAUAGGCCAUGGAAACUAGGAGCACCAUUUCGCUGCCAGUGAAGAAAUGAACAAAGAAAAUCUGGGCCAGGCAGGCAUCAAAAGAAAUAGUCUUGCGCUCAACCAGAAAGUCUGUAAUCAUUUUAAGGGUA

Variants of: B1
Experiment: self-cleavage, relative activity (ratio to wild type); higher = more cleavage; in vitro, sequencing; the parent is a self-cleaving ribozyme

Point of comparison: C81U, self-cleavage 0.35. Against it:
- C85U U103C — lower, 0.34
- A82C A86U — lower, 0.13
- G84C — lower, 0.29
- G84A — higher, 2.05
- G84U — higher, 0.7
- A78G U127A — lower, 0.31
- A78G U120C — lower, 0.19
- A78U A91G — lower, 0.11
- A78C C128U — lower, 0.29
- A78G C88A — lower, 0.17
- C81G U127C — lower, 0.04
- A78U A86G — lower, 0.11
- C77U A125G — higher, 1.37
- A82C A118G — lower, 0.11
- A82U U130C — lower, 0.14
- G84A A126G — higher, 0.87
- G79U A135G — lower, 0.02
- A82U U102C — lower, 0.33
- A78G U102A — lower, 0.11
- G80C A96U — lower, 0.09
- G80A A114G — lower, 0.05
- C81A U122C — lower, 0.22
- A78C U127C — lower, 0.18
- A78U A126U — the same, 0.35
- A82G U127C — lower, 0.22
- C76U A117G — lower, 0.22
- A82G G99U — lower, 0.07
- A78U A125G — lower, 0.03
- G79A U120G — lower, 0.11
- G79A U120A — lower, 0.13
- A78C A94G — higher, 0.39
- C76U A94G — lower, 0.13
- C77U U108C — lower, 0.03
- G83A U103C — higher, 0.41
- A82U A89G — lower, 0.1
- A82U A89U — lower, 0.32
- G83A U108C — lower, 0.02
- G84C A94G — lower, 0.32
- G79A A91C — lower, 0.09
- C85A A140G — higher, 1.84
- A86G U120A — higher, 1.8
- A82U A114G — lower, 0.03
- A82U A114U — lower, 0.01
- A86G U127A — higher, 1.76
- G84U A126G — higher, 0.45
- C81U C112U — lower, 0.01
- A82U U124C — lower, 0.18
- A82U A91G — lower, 0.11
- A78U U108C — lower, 0.01
- A82G A126G — lower, 0.33
- A82G U139A — lower, 0.23
- A82G U139G — lower, 0.26
- A78G U103G — lower, 0
- A78G U103A — lower, 0.08
- G83A U122A — higher, 1.13
- A82G U124C — lower, 0.27
- C81U U108A — lower, 0.02
- C81U U108C — lower, 0.02
- C81A — lower, 0.25
- C81G — lower, 0.2
- A78G C105U — lower, 0.03
- C81G A82G — lower, 0.3
- A78U G119A — higher, 0.39
- G84A U122C — higher, 2.09
- A82G C109A — lower, 0.05
- G84U U130C — lower, 0.28
- A78G A114U — lower, 0.01
- A82U A110G — lower, 0.04
- C85G A125G — higher, 0.55
- A78U A98U — higher, 0.71
- G83A A90G — higher, 1.34
- C81A A135G — lower, 0.22
- A82G U122C — lower, 0.24
- A82U A111G — lower, 0.02
- A86C U130C — lower, 0.29
- C85U A96U — higher, 1.58
- C85A A135G — higher, 1.54
- C81A A126G — lower, 0.17
- C81U U127C — lower, 0.22
- C76U A140G — lower, 0.12
- C85A A98U — higher, 1.17
- A78G A125G — lower, 0.1
- A82U A126U — lower, 0.19
- A82U A126G — lower, 0.1
- A78C — lower, 0.18
- A78U — higher, 0.36
- A78G — lower, 0.22
- G84A A111G — lower, 0.01
- G84A U103C — higher, 0.82
- A86G A98U — higher, 1.73
- A82G A116U — lower, 0.07
- A82U U132C — lower, 0.18
- G80C U132A — lower, 0.1
- A78U U100C — higher, 1.1
- G79A A86U — lower, 0.09
- G79A A86G — lower, 0.22
- G83A A98U — higher, 1.82
- A82G U102C — higher, 1.16
- A82G U102A — lower, 0.34
- A82G A118U — higher, 0.44
- A82G A118G — lower, 0.14
- A78G A118U — lower, 0.21
- A78G A82G — lower, 0.13
- G84C U127C — lower, 0.22
- A86G U100C — higher, 2.12
- A86G U100A — higher, 0.41
- A78U U124C — lower, 0.26
- C76U G123A — lower, 0.13
- A86G A117G — higher, 1.45
- A86G A117U — higher, 1.45
- A78G U133C — lower, 0.27
- G83A A140U — higher, 2.25
- G80U G123A — lower, 0.14
- C85U U108G — lower, 0.01
- C85U U108C — lower, 0.04
- G79U A96G — lower, 0.1
- A82U U127C — lower, 0.13
- A78U U132C — higher, 0.48
- C85U U102C — higher, 0.67
- A82G G83U — lower, 0.08
- C76U U124A — lower, 0.02
- A78G A110G — lower, 0.11
- A78G A110C — lower, 0.3
- A78C U102A — lower, 0.02
- A78G A95G — lower, 0.26
- G80A A95U — lower, 0.17
- C85G A110G — lower, 0.03
- G80U U100C — lower, 0.16
- C85G A126G — lower, 0.2
- A82U A96G — lower, 0.24
- A82U A96U — lower, 0.25
- A86C A89G — higher, 1.17
- G79A U108C — lower, 0.01
- A78U U127C — lower, 0.07
- A82U U87A — lower, 0.02
- C85G U130C — lower, 0.34
- C85G A135G — higher, 0.85
- C77U A116G — higher, 1.22
- A82U A94G — lower, 0.26
- A82C A125U — lower, 0
- G79A A98U — lower, 0.13
- G79A A98G — lower, 0.03
- A78G A111G — lower, 0.03
- C77U G80A — higher, 0.37
- C85U U87C — higher, 1.47
- G80A U108A — lower, 0.02
- A78C G79A — lower, 0.16
- A82U U139A — lower, 0.18
- A78U A118G — higher, 0.49
- A78U G115U — lower, 0.03
- A86G A95G — higher, 1.72
- A82G A95G — higher, 1.23
- A82G A125G — lower, 0.23
- A78U A114U — lower, 0.03
- A78U A114G — lower, 0.11
- C81A A114U — lower, 0.03
- G79U U100C — lower, 0.03
- C77U A129G — higher, 1.77
- A82G U100C — higher, 1.36
- C77U U133C — higher, 2.55
- G79C U132C — lower, 0.06
- A78U A116G — lower, 0.14
- G80A U130C — lower, 0.08
- G83U A116G — lower, 0.2
- C76U U102C — lower, 0.1
- C85U A125U — higher, 1.35
